Laboratory results taken from article doi:10.1101/2023.02.16.528799.

Molecular target: TAX peptide, Human T-cell leukemia virus type I peptide on HLA-A2 (human)
Assay: data from Cole et al., 2013

“A6-TCR after mutation of the CDR3 beta loop (PDBID 4FTV)” showed a fold enhancement of binding over A6-TCR of 1000 fold.
